Data on two molecules can be found in PMC6975927.

For experiment [1], the target named is SCF^βTRCP (CUL1-RBX1 with full-length βTRCP2 (FBW11)-SKP1 complex) (human) (UniProt Q13616).
In experiment [2] the target is SCF^FBW7 (CUL1-RBX1 with FBW7(263-C-terminus)-SKP1 complex) (human) (UniProt Q13616).

In the case of “UBE2D3 (from UniProt P61077 1-147) (enzyme)”, the KM of UBE2D3 in multi-turnover ubiquitylation of 32P-labeled β-Catenin peptide by SCF^βTRCP in experiment [1] worked out at 0.488 µM. Besides, the KM of UBE2D3 in multi-turnover ubiquitylation of 32P-labeled Cyclin E peptide by SCF^FBW7 in experiment [2] stood at 1.67 µM.

B1: UBE2G1 (enzyme)
chain: MTELQSALLLRRQLAELNKNPVEGFSAGLIDDNDLYRWEVLIIGPPDTLYEGGVFKAHLTFPKDYPLRPPKMKFITEIWHPNVDKNGDVCISILHEPGEDKYGYEKPEERWLPIHTVETIMISVISMLADPNGDSPANVDAAKEWREDRNGEFKRKVARCVRKSQETAFE
As to B1, the KM of UBE2G1 in multi-turnover ubiquitylation of 32P-labeled mono-ubiquitylated Cyclin E peptide (Ub-Cyclin E) by SCF^FBW7 in experiment [2] is 1.3 µM.
